This is an account of results in PMC10811509, “APP‐C31: An Intracellular Promoter of Both Metal‐Free and Metal‐Bound Amyloid‐β40 Aggregation and Toxicity in Alzheimer's Disease” (Advanced Science, 2023).

The term stoichiometry N denotes a count of units in the complex or per binding partner.

Conditions in all cases: both partners purified
Assay [1] concerns the target T1, amyloid‐β40 (Aβ40).
T1 construct: Amyloid-beta 40, cut from amyloid precursor protein (APP) by beta- and gamma-secretases; numbers count on: the Aβ peptide (Asp1 to Val40); Unlabelled peptide; Metal-treated samples (CuCl2, ZnCl2) are told apart by the assay; also called metal-free Aβ40; Cu(II)–Aβ40 and Zn(II)–Aβ40 when treated with CuCl2 or ZnCl2; source: bought: Peptide Institute (HPLC-purified) or Anaspec
As to the kind of experiment: ITC; APP-C31 600 µM in the syringe, Aβ40 30 µM in the cell; 20 mM HEPES, pH 7.4; 10 °C; one set of sites model. For orientation: In ITC the heat of successive injections is recorded.

Assay [2] addresses T1, amyloid‐β40 (Aβ40). As to the kind of experiment: native MS; ESI–MS; APP-C31 100 µM incubated with Aβ40 100 µM, 20 mM ammonium acetate, pH 7.3, 37 °C, 2 h, no agitation; diluted tenfold before injection; no metal.
For assay [3], the target named is T2, uniformly ^15N‐labeled Aβ40 (uniformly 15N-labeled).
T2 construct: Amyloid-beta 40, cut from amyloid precursor protein (APP); numbers count on: the Aβ peptide (Asp1 to Val40); also called ^15N‐labeled Aβ40 monomer; source: bought: rPeptide Inc
T2 sequence (peptide, as listed by the source): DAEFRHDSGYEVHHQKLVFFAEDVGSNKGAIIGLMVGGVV
Nature of the assay: NMR titration; 2D 1H–15N HSQC (700 MHz); 15N-labeled Aβ40 40 µM, CuCl2 20 µM, APP-C31 200 µM; 20 mM HEPES, pH 7.4; 10 °C.

T1 sequence (peptide, as listed by the source): as above

B1: APP‐C31 (APP_(665–695)) (peptide)
peptide: AAVTPEERHLSKMQQNGYENPTYKFFEQMQN
notes: C-terminal 31 residues of amyloid precursor protein (APP), produced by caspase cleavage; residues 665-695; source: bought: AnaSpec
In the assay with amyloid‐β40 (Aβ40) [1], B1 came in with a Kd of 150 ± 11.4 µM and a dH of -1.5 ± 0.3 kcal/mol. Moreover, the “stoichiometry N” value with amyloid‐β40 (Aβ40) [2] stood at 1. Besides, in assay [3], the binding result was “binds”.
